Square brackets hold non-standard residues; d marks the D form. Ends that are not written are not given here.
These binders were tested against T1, ProLink tagged human CXCR4 (C2C12 CXCR4 β-Arrestin cell line) (human, UniProt P61073 1-352) (assay: cell-based or functional assay).
T1 sequence (P61073 whole entry): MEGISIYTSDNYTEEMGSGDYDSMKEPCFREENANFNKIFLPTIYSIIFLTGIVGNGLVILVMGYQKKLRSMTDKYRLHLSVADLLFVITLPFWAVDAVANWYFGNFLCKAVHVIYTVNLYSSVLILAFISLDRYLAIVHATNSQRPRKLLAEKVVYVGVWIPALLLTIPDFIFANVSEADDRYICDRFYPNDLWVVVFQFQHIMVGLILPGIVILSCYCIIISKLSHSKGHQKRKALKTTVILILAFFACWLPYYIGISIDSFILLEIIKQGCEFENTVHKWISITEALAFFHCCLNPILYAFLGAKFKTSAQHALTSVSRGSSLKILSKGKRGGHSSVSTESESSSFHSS

| Binder | IC50 for Inhibition of CXCR4 (β-Arrestin recruitment) |
| --- | --- |
| LERYHHS[dA]RSSLRPYT [SEQ ID NO: 5] | 121 nM |

Each binder was assayed against T2, ProLink tagged human CXCR4 (C2C12 CXCR4 β-Arrestin cell line) (human, UniProt P61073 1-352) (assay: cell-based or functional assay).
T2 sequence (P61073 whole entry): as above

| Binder | IC50 for Inhibition of CXCR4 (β-Arrestin recruitment) |
| --- | --- |
| LERYHHSVRSSLRPYTK [SEQ ID NO: 4] | 2.28 nM |
| LRRYHHSVRSSLRPYTK [SEQ ID NO: 3] | 0.51 nM |

These binders were tested against T3, CXCR4 on cultured U937 and Jurkat cells (human, UniProt P61073 1-352) (assay: cell-based or functional assay).
T3 sequence (P61073 whole entry): as above

| Binder | Percent Inhibition of CXCL12 Mediated Migration (U937 cells) |
| --- | --- |
| LERYHHSVRSSLRPYTK [SEQ ID NO: 4] | 98% |
| LRRYHHSVRSSLRPYTK [SEQ ID NO: 3] | 101% |
| MLRRYHHSVRSSLRPYTK [SEQ ID NO: 2] | 58% |
| LERYHHS[dA]RSSLRPYT [SEQ ID NO: 5] | 86% |

Target: T1, ProLink tagged human CXCR4 (C2C12 CXCR4 …)
Assay: cell-based or functional assay
Remark: another data set of the same source

| Binder | IC50 for Inhibition of CXCR4 Activation (β-Arrestin recruitment) |
| --- | --- |
| LERYHHSVRTSLRPYTK [SEQ ID NO: 73] | 4 nM |
| LRRYHHSVRTSLRPYTK [SEQ ID NO: 70] | 2 nM |
| LERYHHSVRSSLRPYT [SEQ ID NO: 18] | 24 nM |
| LERYHHSVRSTLRPYTK [SEQ ID NO: 74] | 5 nM |
| LERFHHSVRSSLRPYTK [SEQ ID NO: 54] | 3 nM |
| LERYHHSVRSSLRPYSK [SEQ ID NO: 75] | 4 nM |
| LDRYHHS[dA]RSSLRPYTK [SEQ ID NO: 8] | 3 nM |
| LDRYHHSVRSSLRPYTK [SEQ ID NO: 7] | 1.5 nM |
| LERYHHTVRSSLRPYTK [SEQ ID NO: 39] | 3 nM |
| MLRRYHHSVRSSLRPYTK [SEQ ID NO: 2] | 11 nM |
| LRRYHHSVRSSLRGYTK [SEQ ID NO: 79] | 3 nM |
| LERYHHS[dA]RSSLRPYT [SEQ ID NO: 5] | 244 nM |
| LERYHHSVRSSLRPFTK [SEQ ID NO: 60] | 4 nM |

Target: T2, ProLink tagged human CXCR4 (C2C12 CXCR4 …)
Assay: cell-based or functional assay
Remark: another data set of the same source

| Binder | IC50 for Inhibition of CXCR4 Activation (β-Arrestin recruitment) |
| --- | --- |
| LERYHHSVRSSLRPYTK [SEQ ID NO: 4] | 4 nM |
| LERYHHSVRSSLRPYTK-NH2 [SEQ ID NO: 56] | 11 nM |
| LRRYHHSVRSSLRPYTK-NH2 [SEQ ID NO: 16] | 8 nM |
| LRRYHHSVRSSLRPYTK [SEQ ID NO: 3] | 5 nM |

Target: T3, CXCR4 on cultured U937 and Jurkat cells
Assay: cell-based or functional assay
Remark: another data set of the same source

| Binder | Percent Inhibition of CXCL12 Mediated Migration (1.1 µM Test Article; Jurkat cells) |
| --- | --- |
| LERYHHSVRSSLRPYTK [SEQ ID NO: 4] | 77% |
| LERYHHSVRSSLRPYTK-NH2 [SEQ ID NO: 56] | 83% |
| LERYHHSVRTSLRPYTK [SEQ ID NO: 73] | 82% |
| LRRYHHSVRTSLRPYTK [SEQ ID NO: 70] | 21% |
| LERYHHSVRSSLRPYT [SEQ ID NO: 18] | 66% |
| LERYHHSVRSTLRPYTK [SEQ ID NO: 74] | 61% |
| LRRYHHSVRSSLRPYTK-NH2 [SEQ ID NO: 16] | 21% |
| LERFHHSVRSSLRPYTK [SEQ ID NO: 54] | 54% |
| LERYHHSVRSSLRPYSK [SEQ ID NO: 75] | 81% |
| LDRYHHS[dA]RSSLRPYTK [SEQ ID NO: 8] | 94% |
| LDRYHHSVRSSLRPYTK [SEQ ID NO: 7] | 52% |
| LRRYHHSVRSSLRPYTK [SEQ ID NO: 3] | 66% |
| LERYHHTVRSSLRPYTK [SEQ ID NO: 39] | 77% |
| MLRRYHHSVRSSLRPYTK [SEQ ID NO: 2] | 4% |
| LRRYHHSVRSSLRGYTK [SEQ ID NO: 79] | 36% |
| LERYHHS[dA]RSSLRPYT [SEQ ID NO: 5] | 46% |
| LERYHHSVRSSLRPFTK [SEQ ID NO: 60] | 33% |

Target: T3, CXCR4 on cultured U937 and Jurkat cells
Assay: cell-based or functional assay
Remark: another data set of the same source

| Binder | Percent Inhibition of CXCR4/CXCL12 Induced p-MEK (100 nM Test Article) | Percent Inhibition of CXCR4/CXCL12 Induced p-MEK (1 µM Test Article) |
| --- | --- | --- |
| LERYHHSVRSSLRPYTK [SEQ ID NO: 4] | 40% | 76% |
| LERYHHSVRSSLRPYTK-NH2 [SEQ ID NO: 56] | 69% | 98% |
| LERYHHSVRTSLRPYTK [SEQ ID NO: 73] | 47% | 96% |
| LRRYHHSVRTSLRPYTK [SEQ ID NO: 70] | 57% | 93% |
| LERYHHSVRSSLRPYT [SEQ ID NO: 18] | 45% | 78% |
| LERYHHSVRSTLRPYTK [SEQ ID NO: 74] | 48% | 93% |
| LRRYHHSVRSSLRPYTK-NH2 [SEQ ID NO: 16] | 74% | 100% |
| LERFHHSVRSSLRPYTK [SEQ ID NO: 54] | 46% | 92% |
| LERYHHSVRSSLRPYSK [SEQ ID NO: 75] | 60% | 100% |
| LDRYHHS[dA]RSSLRPYTK [SEQ ID NO: 8] | 32% | 88% |
| LDRYHHSVRSSLRPYTK [SEQ ID NO: 7] | 60% | 96% |
| LRRYHHSVRSSLRPYTK [SEQ ID NO: 3] | 29% | 91% |
| LERYHHTVRSSLRPYTK [SEQ ID NO: 39] | 38% | 95% |
| MLRRYHHSVRSSLRPYTK [SEQ ID NO: 2] | -1% | 28% |
| LRRYHHSVRSSLRGYTK [SEQ ID NO: 79] | 46% | 100% |
| LERYHHS[dA]RSSLRPYT [SEQ ID NO: 5] | -20% | 24% |
| LERYHHSVRSSLRPFTK [SEQ ID NO: 60] | 34% | 82% |

The binders below were run against T4, SNAP tagged-CXC4 receptor labeled with terbium (Tag-lite CXCR4 cells, HEK293) (UniProt P61073 1-352, SNAP tag labeled with terbium fluorescent dye) (assay: HTRF competition on Tag-lite CXCR4 HEK293 cells; competitor labelled CXCL12).
T4 construct: whole, on cells; Bought frozen cells (PerkinElmer-CisBio), HEK293 transiently expressing the receptor; also called terbium labeled CXCR receptor
T4 sequence (P61073 whole entry): as above
Method: Peptides were initially prepared as 1 mM stock in H₂O and tested at a final concentration of 400 nM. Following the manufacture's protocol, a frozen aliquot of Tag-lite CXCR4 cells was thawed and immediately seeded onto 384-well plates in TLB. Immediately following the addition of cells, 400 nM peptide (final concentration) in TLB was added to the appropriate well. […] The plates were covered in aluminum foil and left at room temperature for 3 hours. Following the 3 hour incubation period, the plates were removed from the incubator and fluorescence measured using a Cytation 1 plate reader using a HTRF filter cube ([…]; BioTek; Winooski, Vt.).

| Binder | Percent Inhibition of CXCR4/CXCL12 Binding (400 nM peptide) |
| --- | --- |
| LERYHHSVRSSLRPYTK [SEQ ID NO: 4] | 88% |
| LERYHHSVRTSLRPYTK [SEQ ID NO: 73] | 87% |
| LRRYHHSVRTSLRPYTK [SEQ ID NO: 70] | 11% |
| LERYHHSVRSSLRPYT [SEQ ID NO: 18] | 57% |
| LERYHHSVRSTLRPYTK [SEQ ID NO: 74] | 88% |
| LERFHHSVRSSLRPYTK [SEQ ID NO: 54] | 79% |
| LERYHHSVRSSLRPYSK [SEQ ID NO: 75] | 81% |
| LDRYHHS[dA]RSSLRPYTK [SEQ ID NO: 8] | 86% |
| LDRYHHSVRSSLRPYTK [SEQ ID NO: 7] | 89% |
| LERYHHTVRSSLRPYTK [SEQ ID NO: 39] | 87% |
| LRRYHHSVRSSLRGYTK [SEQ ID NO: 79] | 12% |
| LERYHHSVRSSLRPFTK [SEQ ID NO: 60] | 60% |

Target: T4, SNAP tagged-CXC4 receptor labeled with …
Assay: as above
Remark: another data set of the same source
Method: Peptides were initially prepared as 1 mM stock in H₂O. […] Following the manufacture's protocol, a frozen aliquot of Tag-lite CXCR4 cells was thawed and immediately seeded onto 384-well plates in TLB. […] The plates were covered in aluminum foil and left at room temperature for 3 hours. Following the 3 hour incubation period, the plates were removed from the incubator and fluorescence measured using a Cytation 1 plate reader using a HTRF filter cube ([…]; BioTek; Winooski, Vt.).

| Binder | IC50 |
| --- | --- |
| LERYHHSVRSSLRPYTK [SEQ ID NO: 4] | 6 nM |
| LERYHHSVRTSLRPYTK [SEQ ID NO: 73] | 10 nM |
| LRRYHHSVRTSLRPYTK [SEQ ID NO: 70] | 336 nM |
| LERYHHSVRSSLRPYT [SEQ ID NO: 18] | 18 nM |
| LERYHHSVRSTLRPYTK [SEQ ID NO: 74] | 6 nM |
| LERFHHSVRSSLRPYTK [SEQ ID NO: 54] | 8 nM |
| LERYHHSVRSSLRPYSK [SEQ ID NO: 75] | 11 nM |
| LDRYHHS[dA]RSSLRPYTK [SEQ ID NO: 8] | 9 nM |
| LDRYHHSVRSSLRPYTK [SEQ ID NO: 7] | 5 nM |
| LRRYHHSVRSSLRPYTK [SEQ ID NO: 3] | 497 nM |
| LERYHHTVRSSLRPYTK [SEQ ID NO: 39] | 8 nM |
| MLRRYHHSVRSSLRPYTK [SEQ ID NO: 2] | 375 nM |
| LRRYHHSVRSSLRGYTK [SEQ ID NO: 79] | 670 nM |
| LERYHHS[dA]RSSLRPYT [SEQ ID NO: 5] | 33 nM |
| LERYHHSVRSSLRPFTK [SEQ ID NO: 60] | 17 nM |
